Experimental data published in doi:10.1101/2024.09.28.615595.
Where two headings read alike, the source gives them in different places.

Experiments:
Experiment in all cases: EMSA
CsrA [1] = biological target: T1, CsrA (Escherichia coli, UniProt P69913 1-61)
CsrA [2] = biological target: T1, CsrA; remark: listed apart in the source
CsrA [3] = biological target: T1, CsrA; remark: listed apart in the source

T1 sequence (P69913 whole entry): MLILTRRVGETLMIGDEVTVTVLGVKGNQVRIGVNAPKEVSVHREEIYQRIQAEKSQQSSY

B1: uxuB CDS truncation wild type (ssRNA)
RNA: GGGAUAAUAUGACUACUAUUGUUGACAGCAAUCUGCCGGUUGCCCGCCCGUCAUGGGAUCAUUCUCGUCUGGAAUCACGCAUUGUGCAUCUCGGUUGCGGGGCGUUUC
Kd (CsrA [1]): ~164 nM

B2: uxuB CDS mutant (DOWNSTR mut) (ssRNA)
RNA: GGGAUAAUGCGCUUUCUUUAGCCGUUAAUAUCCACCGGCAUGGCUGCGCGCCGUGCCGGUUCCUUCUUCCUUGCCGUCACUCUUUGAAGACGGAUUCUGGAGUUUACGAUGACUACUAUUGUUGACAGCAAUCUGCCGGUUGCCCGCCCGUCAUUUGAUCAUUCUCGUCUGCAAUCACGCAUUGUGCAUCUAGGUUGCGGGGCGUUUCGCAUGC
apparent K (half saturation) (CsrA [2]): ~158 nM

B3: uxuB no GGAs mutant (ssRNA)
RNA: GGGAUAAUGCGCUUUCUUUAGCCGUUAAUAUCCACCGGCAUGGCUGCGCGCCGUGCCGGUUCCUUCUUGCUUGGCGUCACUCUUUGAAGACGCAUUCUGCAGUUUACGAUGACUACUAUUGUUGACAGCAAUCUGCCGGUUGCCCGCCCGUCAUUUGAUCAUUCUCGUCUGCAAUCACGCAUUGUGCAUCUAGGUUGCGGGGCGUUUCGCAUGC
apparent K (half saturation) (CsrA [2]): ~193 nM

B4: uxuB leader wild type (ssRNA)
RNA: GGGAUAAUGCGCUUUCUUUAGCCGUUAAUAUCCACCGGCAUGGCUGCGCGCCGUGCCGGUUCCUUCUUCCUUGCCGUCACUCUUUGAAGACGGAUUCUGGAGUUUACGAUGACUACUAUUGUUGACAGCAAUCUGCCGGUUGCCCGCCCGUCAUGGGAUCAUUCUCGUCUGGAAUCACGCAUUGUGCAUCUCGGUUGCGGGGCGUUUC
Kd (CsrA [2]): ~83.2 nM

B5: uxuB 5' UTR truncation mutant (ssRNA)
RNA: GGGAUAAUGCGCUUUCUUUAGCCGUUAAUAUCCACCGGCAUGGCUGCGCGCCGUGCCGGUUCCUUCUUGCUUGGCGUCACUCUUUGAAGACGCAUUCUGCAGUUUACGA
binding result (CsrA [3]): no binding
